B1: Vesicle-associated membrane protein 7 (Homo sapiens), P51809 (parent)
chain: MAILFAVVARGTTILAKHAWCGGNFLEVTEQILAKIPSENNKLTYSHGNYLFHYICQDRIVYLCITDDDFERSRAFNFLNEIKKRFQTTYGSRAQTALPYAMNSEFSSVLAAQLKHHSENKGLDKVMETQAQVDELKGIMVRNIDLVAQRGERLELLIDKTENLVDSSVTFKTTSRNLARAMCMKNLKLTIIIIIVSIVFIYIIVSPLCGGFTWPSCVKK
partner: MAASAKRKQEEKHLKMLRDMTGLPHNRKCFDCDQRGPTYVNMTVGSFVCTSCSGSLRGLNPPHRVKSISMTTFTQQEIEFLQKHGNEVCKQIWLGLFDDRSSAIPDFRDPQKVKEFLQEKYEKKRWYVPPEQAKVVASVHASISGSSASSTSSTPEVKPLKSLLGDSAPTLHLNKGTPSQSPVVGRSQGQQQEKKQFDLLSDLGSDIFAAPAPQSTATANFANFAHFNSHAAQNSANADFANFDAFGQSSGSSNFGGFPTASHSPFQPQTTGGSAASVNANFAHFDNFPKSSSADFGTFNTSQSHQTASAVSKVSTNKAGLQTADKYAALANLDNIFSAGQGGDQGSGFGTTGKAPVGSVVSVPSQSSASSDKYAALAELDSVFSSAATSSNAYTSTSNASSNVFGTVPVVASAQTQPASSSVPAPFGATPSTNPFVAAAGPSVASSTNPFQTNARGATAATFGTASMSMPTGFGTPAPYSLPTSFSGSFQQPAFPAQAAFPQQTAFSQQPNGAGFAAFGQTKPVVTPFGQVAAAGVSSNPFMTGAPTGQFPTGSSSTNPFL
B2: Arf-GAP domain and FG repeat-containing protein 1 (Homo sapiens), P52594 (parent)
chain: B1 partner

Variants of: B1
Conditions: with agfg1_human AGFG1, P52594

| Variant | effect of a mutation on the interaction |
| --- | --- |
| MAILFAVVARGTTILAKHAWCGGNFLEVTEQILAKIPSENNKSTSSHGNYLFHYICQDRIVYLCITDDDFERSRAFNFLNEIKKRFQTTYGSRAQTALPYAMNSEFSSVLAAQLKHHSENKGLDKVMETQAQVDELKGIMVRNIDLVAQRGERLELLIDKTENLVDSSVTFKTTSRNLARAMCMKNLKLTIIIIIVSIVFIYIIVSPLCGGFTWPSCVKK [L43S;Y45S] | decreasing interaction |

Variants of: B1
Conditions: with agfg1_human AGFG1, P52594
Remark: another data set of the same source

| Variant | effect of a mutation on the interaction |
| --- | --- |
| MAILFAVVARGTTILAKHAWCGGNFLEVTEQILAKIPSENNKSTSSHGNYLFHYICQDRIVYLCITDDDFERSRAFNFLNEIKKRFQTTYGSRAQTALPYAMNSEFSSVLAAQLKHHSENKGLDKVMETQAQVDELKGIMVRNIDLVAQRGERLELLIDKTENLVDSSVTFKTTSRNLARAMCMKNLKLTIIIIIVSIVFIYIIVSPLCGGFTWPSCVKK [L43S;Y45S] | decreasing interaction |

Variants of: B2
Conditions: with vamp7_human VAMP7, P51809

| Variant | effect of a mutation on the interaction |
| --- | --- |
| MAASAKRKQEEKHLKMLRDMTGLPHNRKCFDCDQRGPTYVNMTVGSFVCTSCSGSLRGLNPPHRVKSISMTTFTQQEIEFLQKHGNEVCKQIWLGLFDDRSSAIPDFRDPQKVKEFLQEKYEKKRWYVPPEQAKVVASVHASISGSSASSTSSTPEVKPLKSLLGDSAPTSHSNKGTPSQSPVVGRSQGQQQEKKQFDLLSDLGSDIFAAPAPQSTATANFANFAHFNSHAAQNSANADFANFDAFGQSSGSSNFGGFPTASHSPFQPQTTGGSAASVNANFAHFDNFPKSSSADFGTFNTSQSHQTASAVSKVSTNKAGLQTADKYAALANLDNIFSAGQGGDQGSGFGTTGKAPVGSVVSVPSQSSASSDKYAALAELDSVFSSAATSSNAYTSTSNASSNVFGTVPVVASAQTQPASSSVPAPFGATPSTNPFVAAAGPSVASSTNPFQTNARGATAATFGTASMSMPTGFGTPAPYSLPTSFSGSFQQPAFPAQAAFPQQTAFSQQPNGAGFAAFGQTKPVVTPFGQVAAAGVSSNPFMTGAPTGQFPTGSSSTNPFL [L171S;L173S] | decreasing interaction |
| MAASAKRKQEEKHLKMLRDMTGLPHNRKCFDCDQRGPTYVNMTVGSFVCTSCSGSLRGLNPPHRVKSISMTTFTQQEIEFLQKHGNEVCKQIWLGLFDDRSSAIPDFRDPQKVKEFLQEKYEKKRWYVPPEQAKVVASVHASISGSSASSTSSTPEVKPSKSSLGDSAPTLHLNKGTPSQSPVVGRSQGQQQEKKQFDLLSDLGSDIFAAPAPQSTATANFANFAHFNSHAAQNSANADFANFDAFGQSSGSSNFGGFPTASHSPFQPQTTGGSAASVNANFAHFDNFPKSSSADFGTFNTSQSHQTASAVSKVSTNKAGLQTADKYAALANLDNIFSAGQGGDQGSGFGTTGKAPVGSVVSVPSQSSASSDKYAALAELDSVFSSAATSSNAYTSTSNASSNVFGTVPVVASAQTQPASSSVPAPFGATPSTNPFVAAAGPSVASSTNPFQTNARGATAATFGTASMSMPTGFGTPAPYSLPTSFSGSFQQPAFPAQAAFPQQTAFSQQPNGAGFAAFGQTKPVVTPFGQVAAAGVSSNPFMTGAPTGQFPTGSSSTNPFL [L160S;L163S] | decreasing interaction |
| MAASAKRKQEEKHLKMLRDMTGLPHNRKCFDCDQRGPTYVNMTVGSFVCTSCSGSLRGLNPPHRVKSISMTTFTQQEIEFLQKHGNEVCKQIWLGLFDDRSSAIPDFRDPQKVKEFLQEKYEKKRWYVPPEQAKVVASVHASISGSSASSTSSTPEVKPLKSSSGDSAPTLHLNKGTPSQSPVVGRSQGQQQEKKQFDLLSDLGSDIFAAPAPQSTATANFANFAHFNSHAAQNSANADFANFDAFGQSSGSSNFGGFPTASHSPFQPQTTGGSAASVNANFAHFDNFPKSSSADFGTFNTSQSHQTASAVSKVSTNKAGLQTADKYAALANLDNIFSAGQGGDQGSGFGTTGKAPVGSVVSVPSQSSASSDKYAALAELDSVFSSAATSSNAYTSTSNASSNVFGTVPVVASAQTQPASSSVPAPFGATPSTNPFVAAAGPSVASSTNPFQTNARGATAATFGTASMSMPTGFGTPAPYSLPTSFSGSFQQPAFPAQAAFPQQTAFSQQPNGAGFAAFGQTKPVVTPFGQVAAAGVSSNPFMTGAPTGQFPTGSSSTNPFL [L163S;L164S] | decreasing interaction |

Variants of: B2
Conditions: with vamp7_human VAMP7, P51809
Remark: another data set of the same source

| Variant | effect of a mutation on the interaction |
| --- | --- |
| MAASAKRKQEEKHLKMLRDMTGLPHNRKCFDCDQRGPTYVNMTVGSFVCTSCSGSLRGLNPPHRVKSISMTTFTQQEIEFLQKHGNEVCKQIWLGLFDDRSSAIPDFRDPQKVKEFLQEKYEKKRWYVPPEQAKVVASVHASISGSSASSTSSTPEVKPLKSSSGDSAPTLHLNKGTPSQSPVVGRSQGQQQEKKQFDLLSDLGSDIFAAPAPQSTATANFANFAHFNSHAAQNSANADFANFDAFGQSSGSSNFGGFPTASHSPFQPQTTGGSAASVNANFAHFDNFPKSSSADFGTFNTSQSHQTASAVSKVSTNKAGLQTADKYAALANLDNIFSAGQGGDQGSGFGTTGKAPVGSVVSVPSQSSASSDKYAALAELDSVFSSAATSSNAYTSTSNASSNVFGTVPVVASAQTQPASSSVPAPFGATPSTNPFVAAAGPSVASSTNPFQTNARGATAATFGTASMSMPTGFGTPAPYSLPTSFSGSFQQPAFPAQAAFPQQTAFSQQPNGAGFAAFGQTKPVVTPFGQVAAAGVSSNPFMTGAPTGQFPTGSSSTNPFL [L163S;L164S] | decreasing interaction |
